Measured values: PMC10522976 (Molecular Therapy Oncolytics, 2023)

B1: human recombinant mesothelin (MSLN), residues 296-606, His tag (domain or fragment, UniProt Q13421 296-606, looked up)
chain: EVEKTACPSGKKAREIDESLIFYKKWELEACVDAALLATQMDRVNAIPFTYEQLDVLKHKLDELYPQGYPESVIQHLGYLFLKMSPEDIRKWNVTSLETLKALLEVNKGHEMSPQVATLIDRFVKGRGQLDKDTLDTLTAFYPGYLCSLSPEELSSVPPSSIWAVRPQDLDTCDPRQLDVLYPKARLAFQNMNGSEYFVKIQSFLGGAPTEDLKALSQQNVSMDLATFMKLRTDAVLPLTVAEVQKLLGPHVEGLKAEERHRPVRDWILRQRQDDLDTLGLGLQGGIPNGYLVLDLSMQEALSGTPCLLGP

Assays:
[1] = target: VH-Fc 3C9 (VH 3C9 fused with human IgG1 Fc, bivalent) (human); test: SPR
[2] = target: VH-Fc 3C9-YF750 (human); test: ELISA
[3] = target: B1; test: SPR
[4] = target: mouse MSLN (Mus musculus, UniProt Q61468); test: ELISA
[5] = target: B1; test: ELISA

Sequence of mouse MSLN (Q61468 36-600): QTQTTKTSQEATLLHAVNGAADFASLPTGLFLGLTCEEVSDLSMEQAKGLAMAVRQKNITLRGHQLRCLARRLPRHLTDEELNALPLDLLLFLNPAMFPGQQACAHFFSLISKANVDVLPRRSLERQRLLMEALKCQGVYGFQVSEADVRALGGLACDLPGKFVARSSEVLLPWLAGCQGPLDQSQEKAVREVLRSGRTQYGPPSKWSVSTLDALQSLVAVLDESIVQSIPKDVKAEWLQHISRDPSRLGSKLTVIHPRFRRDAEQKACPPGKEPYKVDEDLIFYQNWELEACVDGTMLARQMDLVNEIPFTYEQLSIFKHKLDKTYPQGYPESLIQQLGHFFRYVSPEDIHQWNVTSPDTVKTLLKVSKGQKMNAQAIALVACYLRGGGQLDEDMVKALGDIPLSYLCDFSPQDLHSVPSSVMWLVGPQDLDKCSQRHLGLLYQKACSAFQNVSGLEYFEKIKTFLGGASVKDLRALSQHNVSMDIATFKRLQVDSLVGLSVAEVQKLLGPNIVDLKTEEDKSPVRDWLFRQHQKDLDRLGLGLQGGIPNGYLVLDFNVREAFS

Binder | Kd [1] [nM] | binding result [2] | Kd [3] [nM] | binding result [4] | EC50 [5] [nM]
B1 | 7 | binds |  |  | 
VH 3C9 (human antibody heavy chain variable domain) (VHH) VHH: DVQLVESGGGVVQPGRSLRLSCAASGFTFSSYAMHWVRQAPGKGLEWVSSISGNSLYKYYADSVKGRFTISRDDSTNTLYLQMNSLRAEDTATYYCTRHWAVGNWGQGTLVTVSS |  |  | < 3 | no binding | < 10
